Measured values reported in patent US20160040196A1, “ENZYMATIC CONVERSION OF BOTH ENANTIOMERS OF 1,2-PROPANEDIOL TO PROPIONALDEHYDE” (University of Georgia Research Foundation, Inc., priority 2014, published 2016).

Assays:
C[C@H](O)CO = assay: purified protein, by the assay type
OCC(O)CO = assay: purified protein, by the assay type
RiDD = assay: Hydrogen-driven conversion in a cell-free reactor (proof of concept, FIG. 2); type: biochemical, Roseburia inulinivorans; settings: 10% (v/v) 1,2-propanediol, 1 atm hydrogen
Description: In the simplest embodiment the “cell free reactor” would include only “catalytic” amounts of the enzymes described herein. Specifically, a catalytic amount is one molecule and anything greater than one enzyme molecule. In the data shown in FIG. 2 of this disclosure the cell free reactor includes the following; 10 μM of RiDD, 100 μM yeast alcohol dehydrogenase (YADH), and 200 μM of the soluble hydrogenase from Ralstonia metallidurans (formally Alcaligenes eutrophus). The reaction was carried out under strictly anaerobic conditions (oxygen-free argon gas) and initiated by the addition of the reduced RiDD-AE (50 μM final) and S-adenosylmethionine (1 μM). 100% hydrogen gas was maintained in the head space of the reactor at 1 atm and the reaction also included 1 mM NADH, 20 mM TRIS pH 7.9, and 1% glycerol.
This experiment was performed in a 50 mL reactor with 20 mL liquid volume and the remaining headspace under 1 atm of oxygen-free hydrogen gas. Experimental conditions were as follows 20 mM Tris pH 7.9, 10% (v/v) 1,2-propanediol, 1% (v/v) glycerol 50 μM purified RiDD, 100 μM purified DhaT, 100 μM NAD+, and 100 μM purified H2ase. After a brief pre-incubation (20 min) period to insure strictly anaerobic conditions were achieved (less than 1 ppm O2), purified RiDD-AE in the reduced (formally [4Fe-4S]′) form was added to a final concentration of 50 μM to initiate the reaction. […]

[1] = substrate: C[C@@H](O)CO; assay: Coupled enzyme assay for the RiDD (NADH-dependent reduction of propionaldehyde by YADH); type: biochemical, Roseburia inulinivorans; settings: other: substrate of RiDD; Michaelis-Menten fit, FIG. 7
Source text: (§1) FIG. 5A depicts a chemical pathway describing how the conversion of glycerol, by an activated glycerol dehydratase can be easily monitored using purified DhaT and following the NADH-dependent reduction of 3-hydroxypropionaldehyde to 1,3-propanediol. Similarly, FIG. 5B depicts a chemical pathway for how the conversion of 1,2-propanediol, by an activated diol-dehydratase can be monitored by following the NADH-dependent reduction of propionaldehyde by YADH.
(§2) A coupled enzyme assay for the CbGD and the RiDD was performed as previously described^5 with minor modifications. Where indicated, varying amounts of the substrate (specifically, glycerol, R-1,2-propanediol, or S-1,2-propanediol) were added from pure stock solutions purchased through Sigma Chemical Company™ in some cases the stocks were diluted with ddH2O in order to allow for accurate measurement of the substrate at the lower concentrations. In addition, when glycerol was used as the substrate for the CbGD, the enzyme YqhD was included in the assay in place of yeast alcohol dehydrogenase (YADH) and […]. YqhD is an aldehyde reductase capable of the NADPH-dependent reduction of several aldehydes, including 3-hydroxypropionaldehyde and was overexpressed and purified from E. coli as previously described^9.

[2] = substrate: C[C@H](O)CO; assay: as above; type: biochemical, Roseburia inulinivorans; settings: other: substrate of RiDD; Michaelis-Menten fit, FIG. 7
Source text: as §1, §2

**Q.** Which Km (C[C@H](O)CO) does the source give for “C. butyricum glycerol dehydratase (CbGD) (Clostridium butyricum)” here?
**A.** 0.8 mM

**Q.** What about the Km (OCC(O)CO) of the same molecule?
**A.** 0.2 mM

**Q.** How did the “concentration of glycerol over the reaction” value (RiDD; 1% (v/v) glycerol, FIG. 2) turn out when `OCC(O)CO` [glycerol, propane-1,2,3-triol] was run?
**A.** remained unchanged

**Q.** With `CC(O)CO` (racemic) [1,2-propanediol, propane-1,2-diol] as the molecule, how does the “propanol titer from conversion of 1,2-propanediol” value (RiDD; after 6 hours, 1% glycerol) read?
**A.** ~14 g/L

B1: B12-independent diol dehydratase from R. inulinivorans (RiDD) (Roseburia inulinivorans) (protein)
chain: MGNYDSTPIAKSDRIKRLVDHLYAKMPEIEAARAELITESFKATEGQPVVMRKARAFEHILKNLPIIIRPEELIVGSTTIAPRGCQTYPEFSYEWLEAEFETVETRSADPFYISEETKKRLLAADAYWKGKTTSELATSYMAPETLRAMKHNFFTPGNYFYNGVGHVTVQYETVLAIGLNGVKEKVRKEMENCHFGDADYSTKMCFLESILISCDAVITYANRYAKMAEEMAEKETDAARRQELLTIARVCKNVPEFPAESFQEACQSFWFIQQVLQIESSGHSISPGRFDQYMYPYYEKDLKEGSLTREYAQELIDCIWVKLNDLNKCRDAASAEGFAGYSLFQNLIVGGQTVQGRDATNDLSFMCITASEHVFLPMPSLSIRVWHGSSKALLMRAAELTRTGIGLPAYYNDEVIIPALVHRGATMDEARNYNIIGCVEPQVPGKTDGWHDAAFFNMCRPLEMVFSNGYDNGEIASIQTGNVESFQSFDEFMEAYRKQMLYNIELMVNADNAIDYAHAKLAPLPFESCLVDDCIKRGMSAQEGGAIYNFTGPQGFGIANVADSLYTIKKLVFEEKRITMGELKKALEMNYGKGLDATTAGDIAMQVAKGLKDAGQEVGPDVIANTIRQVLEMELPEDVRKRYEEIHEMILELPKYGNDIDEVDELAREAAYFYTRPLETFKNPRGGMYQAGLYPVSANVPLGAQTGATPDGRLAHTPVADGVGPTSGFDISGPTASCNSVAKLDHAIASNGTLFNMKMHPTAMAGEKGLESFISLIRGYFDQQGMHMQFNVVDRATLLDAQAHPEKYSGLIVRVAGYSALFTTLSKSLQDDIIKRTEQADNR
**Q.** For B1, which Km [1] is on record?
**A.** 0.8 mM

**Q.** And the Km [2]?
**A.** 0.5 mM
